Reference: US20250326823A1

Columns and labels:
Assay in all cases: cell-based or functional assay
[1] = biological target: SARS-CoV-2 spike (S) protein, D614G (SARS-CoV-2) (UniProt P0DTC2)
[2] = biological target: SARS-CoV-2 spike (S) protein, variant JD.1.1 (SARS-CoV-2)
[3] = biological target: SARS-CoV-2 spike (S) protein, variant BA.1 (SARS-CoV-2)
[4] = biological target: SARS-CoV-2 spike (S) protein, variant KP.2 (SARS-CoV-2) (UniProt P0DTC2)
[5] = biological target: SARS-CoV-2 spike (S) protein, variant LB.1 (SARS-CoV-2)
[6] = biological target: SARS-CoV-2 spike (S) protein, variant JN.1.13.1 (SARS-CoV-2)
[7] = biological target: SARS-CoV-2 spike (S) protein, variant KP.2 (SARS-CoV-2)
[8] = biological target: SARS-CoV-2 spike (S) protein, variant P.1 (SARS-CoV-2)
[9] = biological target: SARS-CoV-2 spike (S) protein, variant B.1.427 (SARS-CoV-2)
[10] = biological target: SARS-CoV-2 spike protein, variant KP.2 (SARS-CoV-2)
[11] = biological target: SARS-CoV-2 spike (S) protein, variant KP.2.3 (SARS-CoV-2)
[12] = biological target: SARS-CoV-2 spike (S) protein, variant CH.1.1 (SARS-CoV-2)
[13] = biological target: SARS-CoV-2 spike (S) protein, variant BA.4/5 (SARS-CoV-2)
[14] = biological target: SARS-CoV-2 spike (S) protein, variant XBB.1.16 (SARS-CoV-2) (UniProt P0DTC2)
[15] = biological target: SARS-CoV-2 spike (S) protein, variant XBB.1.5 (SARS-CoV-2) (UniProt P0DTC2)
[16] = biological target: SARS-CoV-2 spike (S) protein, variant JF.1 (SARS-CoV-2)
[17] = biological target: SARS-CoV-2 spike (S) protein, variant BQ.1.1 (SARS-CoV-2) (UniProt P0DTC2)
[18] = biological target: SARS-CoV-2 spike (S) protein, variant FL.1.5.1 (SARS-CoV-2)
[19] = biological target: SARS-CoV-2 spike (S) protein, variant XBB.1 (SARS-CoV-2) (UniProt P0DTC2)
[20] = biological target: SARS-CoV-2 spike (S) protein, variant XBC.1 (SARS-CoV-2) (UniProt P0DTC2)
[21] = biological target: SARS-CoV-2 spike (S) protein, variant BA.1 (SARS-CoV-2) (UniProt P0DTC2)
[22] = biological target: SARS-CoV-2 D614G spike (S) protein (SARS-CoV-2) (UniProt P0DTC2)
[23] = biological target: SARS-CoV-2 spike (S) protein, variant HV.1 (SARS-CoV-2)
[24] = biological target: SARS-CoV-2 spike (S) protein, variant BA.4/5 (SARS-CoV-2) (UniProt P0DTC2)
[25] = biological target: SARS-CoV-2 spike (S) protein, variant HK.3 (SARS-CoV-2)

ADG20 (antibody)
neutralization IC50 [1]: 0.019 nM | neutralization IC80 [1]: 0.065 nM | pseudovirus neutralization IC50 [2]: > 67 nM | pseudovirus neutralization IC80 [2]: > 67 nM | neutralizing activity IC50 [3]: 13.9 nM | neutralizing activity IC80 [3]: > 67 nM | neutralizing activity IC50 (µg/ml (caption; values match nM)) [4]: > 67 | neutralizing activity IC80 (µg/ml (caption; values match nM)) [4]: > 67 | pseudovirus neutralization IC50 [5]: > 67 nM | pseudovirus neutralization IC80 [5]: > 67 nM | pseudovirus neutralization IC50 [6]: > 67 nM | pseudovirus neutralization IC80 [6]: > 67 nM | pseudovirus neutralization IC50 [7]: > 67 nM | pseudovirus neutralization IC80 [7]: > 67 nM | neutralizing activity IC50 [8]: 0.021 nM | neutralizing activity IC80 [8]: 0.117 nM | neutralization IC50 [9]: 0.072 nM | neutralization IC80 [9]: 0.162 nM | IC50 (nM), pseudovirus neutralization [10]: > 67 nM | pseudovirus neutralization IC50 [11]: > 67 nM | pseudovirus neutralization IC80 [11]: > 67 nM | neutralizing activity IC50 [12]: 13.7 nM | neutralizing activity IC80 [12]: > 67 nM | neutralizing activity IC50 [13]: > 67 nM | neutralizing activity IC80 [13]: > 67 nM

AZD3152 (antibody)
pseudotyped neutralization potency IC50 [14]: 0.092 nM | pseudotyped neutralization potency IC80 [14]: 0.381 nM | IC50, pseudotyped neutralization potency [1]: 0.016 nM | IC50, pseudovirus neutralization [1]: 0.102 nM | IC80, pseudotyped neutralization potency [1]: 0.032 nM | IC80, pseudovirus neutralization [1]: 0.623 nM | IC50, pseudovirus neutralization [2]: > 67 nM | IC80, pseudovirus neutralization [2]: > 67 nM | pseudotyped neutralization potency IC50 [15]: 0.12 nM | pseudotyped neutralization potency IC80 [15]: 0.308 nM | IC50, pseudovirus neutralization [3]: 0.0779 nM | IC80, pseudovirus neutralization [3]: 0.446 nM | IC50, pseudovirus neutralization [16]: > 67 nM | IC80, pseudovirus neutralization [16]: > 67 nM | pseudotyped neutralization potency IC50 [17]: 0.392 nM | pseudotyped neutralization potency IC80 [17]: 0.944 nM | IC50, pseudovirus neutralization [18]: > 67 nM | IC80, pseudovirus neutralization [18]: > 67 nM | neutralizing activity IC50 (µg/ml (caption; values match nM)) [4]: > 67 | neutralizing activity IC80 (µg/ml (caption; values match nM)) [4]: > 67 | pseudotyped neutralization potency IC50 [19]: 0.096 nM | pseudotyped neutralization potency IC80 [19]: 0.302 nM | pseudotyped neutralization potency IC50 [20]: 0.0322 nM | pseudotyped neutralization potency IC80 [20]: 0.209 nM | IC50, pseudovirus neutralization [8]: 0.315 nM | IC80, pseudovirus neutralization [8]: 0.548 nM | IC50, pseudovirus neutralization [9]: 0.598 nM | IC80, pseudovirus neutralization [9]: 2.03 nM | pseudotyped neutralization potency IC50 [21]: 0.123 nM | pseudotyped neutralization potency IC80 [21]: 0.313 nM | pseudovirus neutralization IC50 [22]: 0.015 µg/mL | IC50 (nM), pseudovirus neutralization [10]: > 67 nM | IC50, pseudovirus neutralization [23]: > 67 nM | IC80, pseudovirus neutralization [23]: > 67 nM | IC50, pseudovirus neutralization [12]: 0.301 nM | IC80, pseudovirus neutralization [12]: 1.59 nM | pseudotyped neutralization potency IC50 [24]: 0.102 nM | pseudotyped neutralization potency IC80 [24]: 0.266 nM | IC50, pseudovirus neutralization [13]: 0.198 nM | IC80, pseudovirus neutralization [13]: 0.656 nM | IC50, pseudovirus neutralization [25]: > 67 nM | IC80, pseudovirus neutralization [25]: > 67 nM
